Reference: IntAct's records for PubMed 21633354

Target: T1, cnd2_schpo cnd2 (UniProt Q9Y7R3)
T1 sequence: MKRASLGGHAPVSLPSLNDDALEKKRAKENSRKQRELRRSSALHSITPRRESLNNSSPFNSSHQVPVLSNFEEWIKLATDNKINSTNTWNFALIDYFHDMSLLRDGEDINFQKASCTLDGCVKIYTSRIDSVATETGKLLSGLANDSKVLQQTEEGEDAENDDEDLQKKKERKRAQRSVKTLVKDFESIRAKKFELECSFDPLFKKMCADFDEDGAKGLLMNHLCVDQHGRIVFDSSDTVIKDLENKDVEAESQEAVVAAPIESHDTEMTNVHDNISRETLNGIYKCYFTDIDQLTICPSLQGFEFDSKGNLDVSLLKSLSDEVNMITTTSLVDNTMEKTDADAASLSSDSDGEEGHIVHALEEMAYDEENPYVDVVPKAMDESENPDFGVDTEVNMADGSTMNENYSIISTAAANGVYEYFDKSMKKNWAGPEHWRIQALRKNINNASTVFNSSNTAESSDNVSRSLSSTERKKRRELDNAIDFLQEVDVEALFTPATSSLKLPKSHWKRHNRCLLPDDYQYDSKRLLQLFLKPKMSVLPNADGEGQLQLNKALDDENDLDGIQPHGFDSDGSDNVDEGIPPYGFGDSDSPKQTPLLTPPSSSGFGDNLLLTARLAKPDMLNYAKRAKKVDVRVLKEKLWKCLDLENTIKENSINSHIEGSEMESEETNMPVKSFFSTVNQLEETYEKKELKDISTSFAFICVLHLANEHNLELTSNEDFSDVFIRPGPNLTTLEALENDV

Substance | effect of a mutation on the interaction
Histone H2A-beta (Schizosaccharomyces pombe (strain ATCC 38366 / 972)) (from UniProt P04910) R19A | decreasing interaction
Histone H2A-beta (Schizosaccharomyces pombe (strain ATCC 38366 / 972)) (from UniProt P04910) K14A;R19A;K22A | disrupting interaction strength
Histone H2A-beta (Schizosaccharomyces pombe (strain ATCC 38366 / 972)) (from UniProt P04910) K5A;K9A;K14A;R19A;K22A | disrupting interaction strength
